Laboratory results reported in the supplement of paper PMC9112550, “Optimization of the antimicrobial peptide Bac7 by deep mutational scanning” (BMC Biology, 2022).

system: Escherichia coli TOP10; assay: shrunken log2 fold change of peptide-encoding DNA abundance (4.5 h post-induction vs induction); higher = less antimicrobial activity (less host growth inhibition); conditions: time post-induction: 4.5 h; library: site-saturation at positions 5, 18, 19, 20
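Note: peptides expressed intracellularly from a pBAD plasmid library in pooled LB shake-flask culture, induced with 0.3% L-arabinose, DNA abundance read by NGS, three biological replicates, DESeq2 with apeglm shrinkage.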

| Sequence | shrunken log2 fold change |
| --- | --- |
| RRIRQRPPRLPRPRPRPYTLPRP | 0.0232 |
| RRIRGRPPRLPRPRPRPFYYPRP | 0.07 |
| RRIRRRPPRLPRPRPRPSHAPRP | 0.232 |
| RRIRERPPRLPRPRPRPFDMPRP | -0.0448 |
| RRIRNRPPRLPRPRPRPLPTPRP | -0.0778 |
| RRIRFRPPRLPRPRPRPDYKPRP | -0.492 |
| RRIRQRPPRLPRPRPRPESSPRP | -0.0458 |
| RRIRARPPRLPRPRPRPCRNPRP | -0.38 |
| RRIRARPPRLPRPRPRPIQYPRP | -0.463 |
| RRIRCRPPRLPRPRPRPNLVPRP | -0.192 |
| RRIRTRPPRLPRPRPRPMMMPRP | 2.94 |
| RRIRERPPRLPRPRPRPLTSPRP | -0.00875 |
| RRIRLRPPRLPRPRPRPECNPRP | -0.0178 |
| RRIRTRPPRLPRPRPRPMELPRP | -0.172 |
| RRIRSRPPRLPRPRPRPWTHPRP | -0.373 |
| RRIRNRPPRLPRPRPRPTICPRP | -0.119 |
| RRIRLRPPRLPRPRPRPPAQPRP | 0.888 |
| RRIRYRPPRLPRPRPRPNMWPRP | -0.391 |
| RRIRPRPPRLPRPRPRPYQYPRP | -0.292 |
| RRIRLRPPRLPRPRPRPIKWPRP | -0.412 |

| Sequence | shrunken log2 fold change |
| --- | --- |
| RRIRLRPPRLPRPRPRPLFLPRP | -0.551 |
| RRIRLRPPRLPRPRPRPQCAPRP | 0.228 |
| RRIRCRPPRLPRPRPRPSKPPRP | -0.109 |
| RRIRCRPPRLPRPRPRPPNWPRP | 1.17 |
| RRIRQRPPRLPRPRPRPSNIPRP | -0.286 |
| RRIRIRPPRLPRPRPRPLKGPRP | -0.0404 |
| RRIRLRPPRLPRPRPRPVGIPRP | 0.102 |
| RRIRIRPPRLPRPRPRPWHYPRP | -0.111 |
| RRIRLRPPRLPRPRPRPLFYPRP | -0.238 |
| RRIRSRPPRLPRPRPRPDPCPRP | 0.0809 |
| RRIRNRPPRLPRPRPRPLYEPRP | -0.675 |
| RRIRMRPPRLPRPRPRPHEYPRP | -0.308 |
| RRIRCRPPRLPRPRPRPDSKPRP | -0.657 |
| RRIRIRPPRLPRPRPRPYYFPRP | -1.16 |
| RRIRIRPPRLPRPRPRPHEKPRP | -0.123 |
| RRIRGRPPRLPRPRPRPWDPPRP | -0.11 |
| RRIRFRPPRLPRPRPRPESHPRP | -0.154 |
| RRIRPRPPRLPRPRPRPFVLPRP | -0.352 |
| RRIRNRPPRLPRPRPRPFCHPRP | -0.476 |
| RRIRHRPPRLPRPRPRPDDFPRP | -0.198 |

| Sequence | shrunken log2 fold change |
| --- | --- |
| RRIRWRPPRLPRPRPRPAWFPRP | 0.251 |
| RRIRMRPPRLPRPRPRPLNVPRP | 0.0507 |
| RRIRNRPPRLPRPRPRPKGSPRP | -0.0293 |
| RRIRHRPPRLPRPRPRPIAKPRP | 0.05 |
| RRIRARPPRLPRPRPRPAMRPRP | 0.825 |
| RRIRLRPPRLPRPRPRPGLEPRP | 0.11 |
| RRIRYRPPRLPRPRPRPWLFPRP | 0.0905 |
| RRIRARPPRLPRPRPRPMVPPRP | 0.0221 |
| RRIRERPPRLPRPRPRPKCCPRP | -0.191 |
| RRIRFRPPRLPRPRPRPEIMPRP | -0.269 |
| RRIRYRPPRLPRPRPRPIWFPRP | -0.269 |
| RRIRNRPPRLPRPRPRPVTYPRP | -0.168 |
| RRIRGRPPRLPRPRPRPMMVPRP | 0.294 |
| RRIRTRPPRLPRPRPRPGLMPRP | 0.0921 |
| RRIRHRPPRLPRPRPRPHHSPRP | -0.147 |
| RRIRPRPPRLPRPRPRPIICPRP | -0.188 |
| RRIRSRPPRLPRPRPRPRNDPRP | -0.181 |
| RRIRKRPPRLPRPRPRPEFIPRP | 0.146 |
| RRIRIRPPRLPRPRPRPKWMPRP | -0.178 |
| RRIRARPPRLPRPRPRPGWNPRP | 0.545 |
